From paper PMC10491405 (PLOS Pathogens, 2023)

B1: human monoclonal stem antibody FI6v3 (antibody, V domains shown)
VH: QVQLVESGGGVVQPGRSLRLSCAASGFTFSTYAMHWVRQAPGKGLEWVAVISYDANYKYYADSVKGRFTISRDNSKNTLYLQMNSLRAEDTAVYYCAKDSQLRSLLYFEWLSQGYFDYWGQGTLVTVSS
VL: not shown
notes: also called mAb FI6v3; source: VRC, NIH
B2: mouse monoclonal stem antibody C179 (antibody, V domains shown)
VH: EVKLVESGGGLVQPGGSLRLSCGTSGFTLTDDYMTWVRQPPGKALEWLGFIRDRANGYTTEYSASVKGRFTISRDNSQSIVYLQMNTLRVEDSATYYCARPKGYFPYAMDYWGQGTSVIVSS
VL: DIQMTQSPASQSASLGESVTITCLASQTIGTWLAWYQQKPGKSPQLLIYAATSLADGVPSRFSGSGSGTKFSFKISSLQAEDFVSYYCQQLYSTPWTFGGGTRLEIK
notes: source: purified from hybridoma from mouse ascitic fluid

Columns and labels:
Test in all cases: ELISA
Conditions in all cases: both partners purified
[1] = target: T1, full-length recombinant H1 HA protein (A/California/07/09, H1N1) (Influenza A virus A/California/07/2009 …, UniProt C3W5X2)
T1 construct: source: bought: Protein Sciences Corporation (purified recombinant full-length HA)

[2] = target: T2, H1 rHA ectodomain (trimeric HA ectodomain, A/California/07/09, H1N1) (Influenza A virus A/California/07/2009 …, UniProt C3W5X2)
T2 construct: source: bought: International Reagent Resource and Sino Biological (HA ectodomains)

[3] = target: recombinant HA1 head protein (rHA1) of H1 HA (A/California/07/09, H1N1) (Influenza A virus A/California/07/2009 …, UniProt C3W5X2)

Binder	binding result [1]	binding result [2]	binding result [3]
B1	binds	–	–
B2	binds	binds	no binding (tested: 0.5 μg/ml)
